Laboratory results reported in patent US20220296727A1, “Immunoconjugate” (DendroCyte BioTech Pty Ltd, priority 2019, published 2022).

Legend:
HEL = assay: Cytotoxicity assay on HEL erythroleukemic cell line; type: cell-based
Protocol: (§1) Kinetic analysis was performed as above.
(§2) DCR-2 and an isotype control mAb were conjugated to a PBD dimer toxin, to assess potential cytotoxicity. The cytotoxicity of DCR-2-PBD and the isotype-PBD were tested against CD300f+ and CD300f− cell lines and the results are shown in FIG. 6 and Table 2.

HL-60 = assay: Cytotoxicity assay on HL-60 AML cell line; type: cell-based
Protocol: as §1, §2

[1] = test system: CD300f- lymphoma cell line Mino; assay: Bystander killing assay; type: cell-based
Protocol: as §1
AML surface targets, including CD300f, can be heterogeneously expressed within AML cases and we considered bystander killing advantageous for an effective ADC. To determine whether DCR-2PBD effects cells not expressing CD300f, we investigated bystander killing by comparing the viability of the CD300f− lymphoma cell line Mino cultured on its own, with Mino cultured mixed with HL-60 in the presence of DCR-2-PBD in mixtures of 50% HL-60/50% Mino, and 25% HL-60/75% Mino. Cells were incubated for 96 hours with various concentrations of DCR-2PBD (FIG. 11). […] The reduction in the Mino cells when combined with HL-60 confirm the ability of DCR-2-PBD to generate bystander killing.

[2] = test system: monocyte-derived dendritic cells (MoDC); assay: Monocyte-derived dendritic cell (MoDC) toxicity assay; type: cell-based, human; details: 200 pmol, 72 hours
Protocol: (§3) PBMC were incubated in complete RPMI media with or without DCR-2-PBD (200 pmol). After 12 hours, washed cells were incubated for a further 12 hours with or without LPS then phenotyped for the expression of activation markers on DC populations. MoDC were derived from CD14+ monocytes as described previously (Fromm et al. J Leukoc Biol. 2020; 107(2):323-339). DCR-2-PBD or isotype-PBD (200 pmol) were added for 72 hours prior to enumeration of live cells by flow cytometry.

[3] = test system: human HSPC and myeloid cells; assay: Humanised (CD34+ engrafted) NSG mouse model; type: in vivo; details: single dose 300 ug/kg, day 7
Protocol: The humanised mouse model used frozen CD34^+ cells (>95% purity) isolated by positive selection (Miltenyi 130-046-702) according to the manufacturer's instructions from two pooled CB samples. Each NSG mouse was injected with 100,000 CD34+ cells 4 hours after receiving a 150cGy irradiation dose. Engraftment as determined by % human CD45+ cells in venous blood was assessed at 12 weeks. Mice were assigned to treatment groups to have similar means of human CD45+ percentage in the PB (10.16% DCR-2-PBD cohort and 10.74% isotype-PBD cohort). Mice were then injected with 300 ug/kg of DCR-2-PBD or isotype-PBD. Mice were euthanised on day 7 and human CD45+ cells from BM (bilateral femurs and tibias) and 300 μl blood were enumerated and phenotyped by flow cytometry.

HL-60 cells = assay: HL-60 leukemic xenograft model in NSG mice; type: in vivo, mouse
Protocol: For the HL-60 leukemic model, NSG mice were irradiated with 200cGy 24 hours prior to intravenous administration of 5×10^6 HL-60 cells. On day 7, mice were injected with DCR-2-PBD, isotype-PBD or PBS and monitored for disease progression and survival. Mice were euthanised when their clinical score was ≥4 or on d70.
On day 7, mice received a single injection of either PBS, or 300 μg/kg of CMRF-81PBD or DCR-2PBD, and their survival monitored.

dendritic cells = assay: Activation marker expression on dendritic cells after LPS; type: cell-based, human; details: HLA-DR, CD11c, CD80, CD83; 200 pmol
Protocol: The activity of DCR-2PBD on the upregulation of activation markers on DC was measured by incubating whole PBMC with DCR-2PBD or no antibody for […] before washing, followed by 12 hours of LPS stimulation. Control DC were not exposed to DCR-2PBD or LPS. Myeloid DC were gated out by excluding dead cells, Lin^+(CD3, CD20, CD19, CD56, CD14), then gating on HLA-DR^+ and CD11c^+ cells. The activation markers CD80 and CD83 were assessed via flow cytometry. The changes on activation were determined by comparing activated DC incubated with or without DCR-2PBD compared to inactivated DC.
as §3

U937 cells = assay: U937 subcutaneous xenograft model in NSG mice; type: in vivo, mouse; details: for tumour growth compared to isotype-PBD (300 ug/kg): intraperitoneal, once
Protocol: NOD.Cg-Prkdc^scld//2rg^tm1Wjl/SzJ (NSG) mice obtained from Australian BioResources were housed under specific pathogen free conditions. In the subcutaneous model, 2×10^6 U937 cells were injected under the skin on the right flank. Tumours were measured daily with electronic calipers. When the mean volume of the tumours was >100 mm^3, DCR-2-PBD, isotype-PBD or PBS was injected intraperitoneally once. […] Tumour volume was measured until >1000 mm^3 when mice were euthanised as required by the ethics protocol.
In the flank injection model 2×10^6 U937 cells were injected subcutaneously into NSG mice and the subsequent tumors were measured daily via caliper to calculate the volume. Mice were injected with 150 ug/kg of DCR-2ADC, Isotype-ADC or an equal volume of PBS on day 6. Mice were euthanized once the volumes reached 1000 mm^3. Survival and tumor size was recorded.
To determine the effect of DCR-2PBD in a mouse model based on U937 cells, mice were injected subcutaneously with cell line U937. After 6 days, mice were administered PBS, […] of CMRF-81PBD or […] of DCR-2PBD intraperitoneally and monitored for tumour growth. Tumour volume and survival of the mice were assessed and the results are shown in FIGS. 17 and 18, respectively.

THP-1 = assay: Cytotoxicity assay on THP-1 AML cell line; type: cell-based
Protocol: as §1, §2

B1: DCR-2PBD: anti-CD300f mAb DCR-2 conjugated to pyrrolobenzodiazepine dimer via Cathepsin B-cleavable linker MA-PEG4-VA-PBD; drug to antibody ratio 3.3 (conjugate)
VH: MESGGGLVQPGGPLKLSCAASGFGFSGSWMSWVRQAPGKGLEWIGQINPDSSTINYTPSLKDKFIISRDNAKNTLYLQINKVRSEDTALYYCARRGFFEGYSAWFAYW
VL: ILMTQTPKFLLVSAGDRVTITCKASQSVSNDVAWYQQKPGQSPSLLIYYASNRNTGVPDRFTGSGYETDFTFTISTVQAEDLAVYFCQQDYTSPWTFGGG
HEL
  IC50: 0.544 nM
HL-60
  IC50: 0.00544 nM
[1]; 25% HL-60/75% Mino, 25 pM, 96 hours (p=0.0002)
  Mino viability vs Mino only control: significant reduction in viability
[1]; 50% HL-60/50% Mino, 12.5 pM, 96 hours (p=0.0004)
  Mino viability vs Mino only control: significant reduction in viability
[1]; 50% HL-60/50% Mino, 25 pM, 96 hours (p<0.0001)
  Mino viability vs Mino only control: significant reduction in viability
[2]
  effect on MoDC survival: little effect
[3]
  CD34+ cells as percentage of total human CD45+ cells: 3.09%
  CD34+CD38-CD90+ cells as percentage of total human CD45+ cells: 0.16%
  lymphocytes in the peripheral blood: 208.5 cells/μl
  mean CD34+CD38-CD90+ cell count in BM: 0.05×10^4
  myeloid cells in the peripheral blood: 0.31 cells/μl
HL-60 cells; 300 ug/kg
  human cells in mice surviving until day 70: No human cells could be detected
HL-60 cells; 300 ug/kg, endpoint day 70
  animals surviving to the experiment endpoint: Six of 8
HL-60 cells; single injection 300 ug/kg on day 7 (p=0.0058)
  survival compared to isotype-PBD: significantly increased survival
Dendritic cells
  up-regulation of activation markers on dendritic cells after LPS: does not prevent up-regulation of activation markers
U937 cells; 150 ug/kg (p=0.0017)
  survival compared to isotype-PBD (300 ug/kg): significantly increased
U937 cells; 150 ug/kg
  tumour growth compared to isotype-PBD (300 ug/kg): delayed
U937 cells; 300 ug/kg (p=0.0017)
  survival compared to isotype-PBD (300 ug/kg): significantly increased
U937 cells; 300 ug/kg
  tumour growth compared to isotype-PBD (300 ug/kg): delayed
THP-1
  IC50: 0.0294 nM
